According to patent publication US12553059B2, “Plant serine proteases” (priority 2018, dated 2026):
“Also recorded” adds a separate entry of the source.

Key:
[1] = tested on: monoclonal antibody 2F5; assay: In vitro degradation assay with purified proteases, substrate 2F5; assay type: biochemical; settings: purified protease 10-100 μg/mL, pH 5.5
Method: (§1) Leaves of Nicotiana benthamiana […] (Strasser R et al. Plant Biotechnol J 6 (2008):392-402) expressing a subtilisin-like serine protease construct were submerged in extraction buffer (50 mM sodium phosphate/200 mM KCl, pH 7.0) prior to vacuum exposure in a desiccator. Exogenous buffer was removed prior to centrifugation of the leaves for 15 min at 2000 g and 4° C. The recovered solution was then supplemented with 20 mM imidazole and loaded on a 1 mL column of Chelating Sepharose (GE […]) charged with Ni^2+ ions. After washing with the same buffer, the recombinant subtilisin-like serine protease was eluted with 250 mM imidazole in extraction buffer. Protein-containing eluate fractions were pooled, dialysed twice against 2 liters of extraction buffer and then concentrated by ultrafiltration using Microsep Advance centrifugal devices (10K MWCO; PALL CORPORATION).
(§2) After incubation for up to 16 h, reactions were stopped by addition of SDS-PAGE sample buffer.
(§3) For isolation of mAb degradation products, antibodies ([…]) were digested with apoplastic fluid or purified subtilisin-like serine proteases in 500 μL 100 mM sodium acetate (pH 5.5) to completion. After addition of 10 μL settled rProtein A Sepharose 4 Fast Flow beads, the samples were incubated for 2 h at 4° C. under constant agitation. The beads were then collected by centrifugation, washed four times with 500 μL PBS prior to elution of the bound antibody fragments with 100 μL 100 mM glycine (pH 3.0). The eluate was immediately neutralized with 10 μL 1 M Tris/HCl (pH 8.0). This elution/neutralization cycle was repeated four times. […]
(§4) N-terminal sequence analysis of bands blotted on polyvinylidene difluoride membranes (BIO-RAD) was performed by Edman degradation (Niemer M et al. Biotechnol J 9 (2014):493-500). […] Eluted polypeptides were analysed online on a maxis 4G ETD Q-TOF mass spectrometer (BRUKER, Billerica, USA) equipped with an electrospray ionization source and operated in the positive ion mode (m/z range: 400-3800). […]

[2] = tested on: HIV-1 UG37 gp140; assay: ELISA antigen binding of 2G12 (I19R 2G12 precomplexed with anti-Fc); settings: 2G12 (I19R variant) cleaved by apoplastic proteases
Method: A slightly modified ELISA procedure was used for the analysis of 2G12 containing an I19R mutation in the heavy chain (I19R 2G12). Wells were coated with 500 ng HIV-1 UG37 gp140 in PBS. […] (Doores K J et al. J Virol 84 (2010):10690-10699) prior to appropriate dilution and addition to the wells. Detection of antigen-bound mAb molecules was performed with 0.1 μg/mL goat anti-human kappa chain peroxidase conjugate (SIGMA-ALDRICH, A7164).

[3] = molecular target: SBT1 (SEQ ID No. 2); assay: Kinetic analysis of protease-inhibitor interactions, SBT1; assay type: biochemical, Nicotiana benthamiana; settings: recombinant inhibitor from E. coli; substrate Abz-VILDAVRA-Y(NO2)
Method: (§5) These assays were performed as described (Hohl M et al., 2017, J. Biol. Chem. 292, 6389-6401). A fluorogenic peptide substrate, Abz-[…]-Y(NO2) (SEQ ID NO: 37), was used for measuring the enzymatic activity of the subtilisin-like serine proteases tested. Recombinant inhibitors (prepared as described in Hohl M et al., 2017, J. Biol. Chem. 292, 6389-6401) were added in serial dilutions. Substrate cleavage was monitored in an Infinite M200 Pro microplate reader as increase in relative fluorescence (λex=320 nm; λem=420 nm). Inhibition constants (Ki) were calculated using the Morrison equation.

[4] = molecular target: SBT2 (SEQ ID No. 14); assay: Kinetic analysis of protease-inhibitor interactions, SBT2; assay type: biochemical, Nicotiana benthamiana; settings: recombinant inhibitor from E. coli; substrate Abz-VILDAVRA-Y(NO2)
SBT2 (SEQ ID No. 14), sequence (as listed by the source): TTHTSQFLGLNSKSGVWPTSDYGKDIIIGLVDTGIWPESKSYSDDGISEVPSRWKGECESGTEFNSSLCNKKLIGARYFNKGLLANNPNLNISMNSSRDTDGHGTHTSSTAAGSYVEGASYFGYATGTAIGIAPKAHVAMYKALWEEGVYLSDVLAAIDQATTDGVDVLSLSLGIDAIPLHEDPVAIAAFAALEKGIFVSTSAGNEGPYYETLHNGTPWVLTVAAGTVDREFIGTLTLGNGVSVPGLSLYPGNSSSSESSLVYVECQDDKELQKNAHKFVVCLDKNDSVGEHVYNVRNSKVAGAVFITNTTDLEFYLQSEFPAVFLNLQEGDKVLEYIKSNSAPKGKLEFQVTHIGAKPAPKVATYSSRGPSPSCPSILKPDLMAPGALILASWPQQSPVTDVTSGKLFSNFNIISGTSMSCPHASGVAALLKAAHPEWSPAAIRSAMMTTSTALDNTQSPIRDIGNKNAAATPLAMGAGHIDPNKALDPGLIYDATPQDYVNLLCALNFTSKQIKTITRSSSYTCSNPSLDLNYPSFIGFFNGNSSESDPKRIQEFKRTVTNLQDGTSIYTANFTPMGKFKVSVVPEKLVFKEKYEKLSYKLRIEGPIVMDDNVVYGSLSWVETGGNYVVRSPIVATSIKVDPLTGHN
Method: as §5

[5] = tested on: PG9; assay: In vitro degradation assay with purified proteases, substrate PG9; assay type: biochemical; settings: for cleavage / degradation of PG9 by purified protease: purified protease 10-100 μg/mL, pH 5.5
PG9, sequence (as listed by the source): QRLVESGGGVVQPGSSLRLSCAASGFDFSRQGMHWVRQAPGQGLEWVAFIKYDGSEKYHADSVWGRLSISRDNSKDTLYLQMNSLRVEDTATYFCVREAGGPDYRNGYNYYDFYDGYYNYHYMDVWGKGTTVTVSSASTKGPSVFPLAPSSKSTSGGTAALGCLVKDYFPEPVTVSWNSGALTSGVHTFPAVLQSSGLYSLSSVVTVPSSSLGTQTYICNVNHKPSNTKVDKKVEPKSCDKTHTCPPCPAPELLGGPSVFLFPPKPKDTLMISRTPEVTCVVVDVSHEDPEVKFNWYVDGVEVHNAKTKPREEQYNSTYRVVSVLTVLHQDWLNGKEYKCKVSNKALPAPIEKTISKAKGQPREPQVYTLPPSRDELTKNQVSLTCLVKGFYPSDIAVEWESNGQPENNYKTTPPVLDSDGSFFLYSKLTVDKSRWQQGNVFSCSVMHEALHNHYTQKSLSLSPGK
Method: as §1, §2, §3, §4

[6] = tested on: I19R 2G12; assay: In vitro degradation assay with purified proteases, substrate I19R 2G12; assay type: biochemical; settings: for cleavage sites in I19R 2G12 heavy chain (arrows): N-terminal sequencing and mass spectrometry; for cleavage / degradation of I19R 2G12 by purified protease: purified protease 10-100 μg/mL, pH 5.5
I19R 2G12, sequence (as listed by the source, stated change not applied): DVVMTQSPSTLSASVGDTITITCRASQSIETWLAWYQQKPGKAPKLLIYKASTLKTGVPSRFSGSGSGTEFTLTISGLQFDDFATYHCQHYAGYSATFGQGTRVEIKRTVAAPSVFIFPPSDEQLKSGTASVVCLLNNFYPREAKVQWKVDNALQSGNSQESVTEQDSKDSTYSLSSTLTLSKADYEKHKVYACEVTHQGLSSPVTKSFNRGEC
I19R 2G12, sequence (as listed by the source, stated change not applied): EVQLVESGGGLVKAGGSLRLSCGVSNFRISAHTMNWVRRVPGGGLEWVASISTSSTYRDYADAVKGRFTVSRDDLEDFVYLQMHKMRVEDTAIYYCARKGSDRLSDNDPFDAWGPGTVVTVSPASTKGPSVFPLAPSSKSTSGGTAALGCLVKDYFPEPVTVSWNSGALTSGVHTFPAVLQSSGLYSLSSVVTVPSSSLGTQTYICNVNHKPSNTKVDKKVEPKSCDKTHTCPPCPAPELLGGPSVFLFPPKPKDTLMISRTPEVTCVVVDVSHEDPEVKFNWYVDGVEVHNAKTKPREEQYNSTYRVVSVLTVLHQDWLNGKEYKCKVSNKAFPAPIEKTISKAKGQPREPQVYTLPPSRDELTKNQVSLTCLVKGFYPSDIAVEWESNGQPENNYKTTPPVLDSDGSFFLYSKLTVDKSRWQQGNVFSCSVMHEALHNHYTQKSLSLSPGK
Method: as §1, §2
For isolation of mAb degradation products, antibodies ([…]) were digested with apoplastic fluid or purified subtilisin-like serine proteases in 500 μL 100 mM sodium acetate (pH 5.5) to completion. After addition of 10 μL settled rProtein A Sepharose 4 Fast Flow beads, the samples were incubated for 2 h at 4° C. under constant agitation. The beads were then collected by centrifugation, washed four times with 500 μL PBS prior to elution of the bound antibody fragments with 100 μL 100 mM glycine (pH 3.0). The eluate was immediately neutralized with 10 μL 1 M Tris/HCl (pH 8.0). This elution/neutralization cycle was repeated four times. All eluate fractions were combined and concentrated by ultrafiltration after buffer exchange into PBS containing 0.02% (v/v) NaN3.
Samples were fractionated by 12.5% SDS-PAGE under reducing conditions and then blotted on nitrocellulose membranes (GE […]).
as §4, with “(2014):493-500). Alternatively, antibodies or their degradation products were digested with PNGase F (ROCHE) to release their N-glycans, reduced with 10 mM DTE (1 h, 56° C.) and then fractionated on a THERMO PROSWIFT RP-4H column (250×0.20 mm) using a Dionex UltiMate 3000 HPLC system (THERMO […]).” for “(2014):493-500).”

monoclonal antibody 2F5, sequence (as listed by the source): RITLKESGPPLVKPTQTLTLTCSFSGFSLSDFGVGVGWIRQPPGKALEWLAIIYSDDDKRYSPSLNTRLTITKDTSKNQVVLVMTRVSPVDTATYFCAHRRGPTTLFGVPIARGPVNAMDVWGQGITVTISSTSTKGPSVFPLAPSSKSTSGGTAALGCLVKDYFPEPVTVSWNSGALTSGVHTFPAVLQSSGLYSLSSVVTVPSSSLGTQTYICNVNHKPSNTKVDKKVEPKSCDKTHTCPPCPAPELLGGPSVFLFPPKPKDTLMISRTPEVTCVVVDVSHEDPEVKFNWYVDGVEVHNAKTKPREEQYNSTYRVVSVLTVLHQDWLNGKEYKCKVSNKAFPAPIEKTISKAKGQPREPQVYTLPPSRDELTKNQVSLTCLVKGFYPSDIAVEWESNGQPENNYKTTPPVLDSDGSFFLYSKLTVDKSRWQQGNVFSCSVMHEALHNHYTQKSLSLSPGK

trypsin [reference compound]
cleavage / degradation of 2F5 by purified protease [1]: did not display cleavage activity; also recorded: cannot cleave

2G12: neutralizing anti-HIV antibody, heavy chain SEQ ID No. 24, light chain SEQ ID No. 28
antigen-binding activity of cleaved vs intact antibody (ELISA) [2]: severely reduced binding; also recorded: much lower antigen-binding activity

B1: S11: S. lycopersicum subtilisin propeptide-like inhibitor, SEQ ID No. 33, recombinant from E. coli (protein)
chain: MMKKDQILSSILLFFFLFTAFITTMADSQASSQPSNESKVHIVYTEQPKDQEPEEYHIKTLTSVLGSEEAAKEALLYSYKHAASGFSAKLTAEQVSELSKLPGVLQVVPSQTVQLHTGRV
modifications: Protease inhibitor
binding affinity to / inhibition of SBT1 [3]: high affinities
binding affinity to / inhibition of SBT2 [4]: high affinities

B2: SBT1: Nicotiana benthamiana subtilisin-like serine protease comprising SEQ ID No. 2 (protein, listed as Nicotiana benthamiana)
chain: MKGIISLFFCFSLFIVSFILREADSASQAQNNGIYIVYMGAAASSNGGTRHDQARLISSLIRRNKHAVVHSYNNGFSGFAARLSESEAKSMAQRPGVISVFPDPVLQLHTTHSWDFLKYQTDEKINSSPSSGSDSSLIGADTIIGILDTGIWPESESFNDKDMGPIPSRWNGTCMDGQDFGSSKCNKKIVGARFYEESDDSGTKIAGSARDENGHGTHVASTAAGSPVAGASYYGLAAGTATGGSPGSRISMYRVCTTFGCRGSAIMKAFDDAIADGVDVLSLSLGSSPGLEPDFPSNPIAIGAFHAVEKGITVVCSAGNSGPGPKTVVNTAPWILTVAATTIDRDFETDIVLGGNKLIKGGGINFGNMTKSSVYPLIHGNSTKSNDNVSEADARSCVPGSLDENKVKGKIVLCENLDDGEYFPSDKLDEVKSRGGVGFILIDDDERTVAPKFNSFSAGVVSKKDGNEILAYINSTRNPVASILPTVSITKYKPAPVVAYFSSRGPAYNTPNLLKPDITAPGVAILAAWPGNDTSEALPGQKPPIFNLLSGTSMSCPHVSGIAATVKAVNPTWSPSAVKSAIMTTAIQTNNLKAPITTVSGSKATPYDIGAGEASTSGPLKPGLVYETDVADYLQFLCSVGFNISQIKLISITVPEDFSCPKNSTSELVSNMNYPSIAISSLKENEPKKVTRTVTNTGEEASVYTTVIEAPKGLEVQVIPTKLEFTNKSKKLSYDVSFKASSTSKEDLFGSITWTNGKYKVRSPFVVSSN
cleavage / degradation of 2F5 by purified protease [1]: degrade; also recorded: can cleave the heavy chains
cleavage sites in PG9 heavy chain (arrows) ([5]; N-terminal sequencing and mass spectrometry): DGYYNYHYM↓[…]
cleavage / degradation of PG9 by purified protease [5]: degrade; also recorded: can cleave the heavy chains
cleavage sites in I19R 2G12 heavy chain (arrows) [6]: ↓TV and TV↓VT
cleavage / degradation of I19R 2G12 by purified protease [6]: degrade; also recorded: can cleave the heavy chains

B3: SBT3: other serine protease (Cedzich A et al. 2009) (protein, UniProt O82777 113-761, looked up)
Subtilisin-like protease SBT3: TTHTSDFLKLNPSSGLWPASGLGQDVIVAVLDSGIWPESASFQDDGMPEIPKRWKGICKPGTQFNASMCNRKLIGANYFNKGILANDPTVNITMNSARDTDGHGTHCASITAGNFAKGVSHFGYAPGTARGVAPRARLAVYKFSFNEGTFTSDLIAAMDQAVADGVDMISISYGYRFIPLYEDAISIASFGAMMKGVLVSASAGNRGPGIGSLNNGSPWILCVASGHTDRTFAGTLTLGNGLKIRGWSLFPARAFVRDSPVIYNKTLSDCSSEELLSQVENPENTIVICDDNGDFSDQMRIITRARLKAAIFISEDPGVFRSATFPNPGVVVNKKEGKQVINYVKNSVTPTATITFQETYLDTKPAPVVAASSARGPSRSYLGISKPDILAPGVLILAAYPPNVFATSIGTNILLSTDYILESGTSMAAPHAAGIAAMLKAAHPEWSPSAIRSAMMTTADPLDNTRKPIKDSDNNKAATPLDMGAGHVDPNRALDPGLVYDATPQDYVNLLCSLNFTEEQFKTIARSSASHNCSNPSADLNYPSFIALYSIEGNFTLLEQKFKRTVTNVGKGAATYKAKLKAPKNSTISVSPQILVFKNKNEKQSYTLTIRYIGDEGQSRNVGSITWVEQNGNHSVRSPIVTSPIIEVW
cleavage / degradation of 2F5 by purified protease [1]: did not display cleavage activity; also recorded: cannot cleave

B4: SBT2: Nicotiana benthamiana subtilisin-like serine protease comprising SEQ ID No. 14 (protein, listed as Nicotiana benthamiana)
chain: MANHITLCIWLLFFFISIFSLAKSETYIIHMDLSAMPKAFSSHHNWYLTTLSSVSDSSTNHKDFLSSKLVYAYTNAIHGFSASLSPSELEAIKYSPGYVSSIKDISVKIDTTHTSQFLGLNSKSGVWPTSDYGKDIIIGLVDTGIWPESKSYSDDGISEVPSRWKGECESGTEFNSSLCNKKLIGARYFNKGLLANNPNLNISMNSSRDTDGHGTHTSSTAAGSYVEGASYFGYATGTAIGIAPKAHVAMYKALWEEGVYLSDVLAAIDQAITDGVDVLSLSLGIDAIPLHEDPVAIAAFAALEKGIFVSTSAGNEGPYYETLHNGTPWVLTVAAGTVDREFIGTLTLGNGVSVPGLSLYPGNSSSSESSLVYVECQDDKELQKNAHKFVVCLDKNDSVGEHVYNVRNSKVAGAVFITNTTDLEFYLQSEFPAVFLNLQEGDKVLEYIKSNSAPKGKLEFQVTHIGAKPAPKVATYSSRGPSPSCPSILKPDLMAPGALILASWPQQSPVTDVTSGKLFSNFNIISGTSMSCPHASGVAALLKAAHPEWSPAAIRSAMMTTSTALDNTQSPIRDIGNKNAAATPLAMGAGHIDPNKALDPGLIYDATPQDYVNLLCALNFTSKQIKTITRSSSYTCSNPSLDLNYPSFIGFFNGNSSESDPKRIQEFKRTVTNLQDGTSIYTANFTPMGKFKVSVVPEKLVFKEKYEKLSYKLRIEGPIVMDDNVVYGSLSWVETGGNYVVRSPIVATSIKVDPLTGHN
cleavage / degradation of PG9 by purified protease [5]: capable of acting on; also recorded: can cleave the heavy chains
cleavage sites in I19R 2G12 heavy chain (arrows) [6]: SD↓RL
cleavage / degradation of I19R 2G12 by purified protease [6]: capable of acting on; also recorded: can cleave the heavy chains
